We go through one molecule from PMC3140568 (Journal of immunology (Baltimore, Md. : 1950), 2011).

Square brackets hold non-standard residues; d marks the D form. Ends that are not written are not given here. pS = N[C@@H](COP(=O)(O)O)C(=O)O

The target in the experiment is T1, TNF receptor-associated death domain protein, wild type (human, UniProt Q15628 1-312).
T1 sequence (looked up): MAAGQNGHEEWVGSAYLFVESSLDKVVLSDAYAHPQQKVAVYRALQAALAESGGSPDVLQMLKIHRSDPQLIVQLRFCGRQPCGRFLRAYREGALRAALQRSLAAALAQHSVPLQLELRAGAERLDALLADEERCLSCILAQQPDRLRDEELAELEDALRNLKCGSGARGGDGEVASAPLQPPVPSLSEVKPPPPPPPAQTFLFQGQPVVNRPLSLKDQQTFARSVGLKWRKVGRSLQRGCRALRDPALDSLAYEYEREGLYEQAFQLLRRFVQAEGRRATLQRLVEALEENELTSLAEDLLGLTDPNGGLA
In words: peptide competition on an immuno-purified complex.

B1: phosphorylated peptide containing the S381XXE motif of TNFR1 (position 375–395) (peptide, UniProt P19438 375-395, looked up)
peptide: VRRLGL[pS]DHEIDRLELQNGRC
With B1, the binding result was “binds”.
